Measurements: patent publication US7056679 (ANTYRA, dated 2006)
No end group written: not given here.

Biological target: T1, DGI-2 (UniProt Q15004 1-111, limits assumed)
T1 construct: Soluble recombinant DGI-2 made by in vitro translation (RTS, pIVEX2.3-MCS vector) and coated on plates for the ELISA; vector tag not described; also called KIAA0101; DGI-2 polypeptide
T1 sequence (looked up): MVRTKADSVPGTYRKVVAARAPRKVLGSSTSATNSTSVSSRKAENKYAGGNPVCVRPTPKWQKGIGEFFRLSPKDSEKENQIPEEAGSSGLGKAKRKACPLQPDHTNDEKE
Experiment: phage ELISA, coated DGI-2
Method: For analysis of individual target binders, colonies were picked and phage prepared as described above using helper phage, M13KO7. Ninety-six-well microtiter plates were coated with 500 ng/well of specific target protein, 500 ng/well lactate dehydrogenase (LDH) irrelevant or non-specific target, 500 ng/well of positive control antibody raised against ETAG, and negative control of non-fat milk powder-PBS 2% at 4° C. overnight. Plates were then blocked with 350 microliters/well PBS containing 2% non-fat milk for 1 hr at room temperature. One hundred microliters per well of phage from isolated clones were added and plates were incubated at room temperature for 2 hr after centrifuging samples for 20 minutes at 3500 rpm at 4° C. The phage solution was then removed, and the wells were washed three times with PBS at room temperature. Antibody raised against M13 conjugated to horseradish peroxidase (Pharmacia) was diluted 1:3000 in PBS-Tween and added to each well (100 µl/well). Incubation was for 1 hr at room temperature, followed by washing with PBS-(0.5%) Tween 3 times as described. Color was developed by addition of ABTS solution (100 µl/well; Boehringer, Indianapolis, Ind.). Plates were analyzed at 405 nm. A clone was considered "positive" if the $A405$ of the well was $\geq$2-fold over background.

| Binder | binding result |
| --- | --- |
| SLSLYWDAQVGCEVFWGYCV (not fully specified; cysteine pairing not given here, on M13 phage, pIII fusion with E-tag) [DGI-2-20R-3-C10] | binds |
| RFWSVSYQGGRVMCREWGYCLPI (not fully specified (bridges); cysteine pairing not given here, on M13 phage, pIII fusion with E-tag) [DGI-2-40F-3-C92] | binds |
| LSLLSVVVRSMGASAPQRQV (on M13 phage, pIII fusion with E-tag) [DGI-2-20F-3-A7] | binds |
| DRSRAPLCADKSGRWQRYRR (on M13 phage, pIII fusion with E-tag) [DGI-2-20F-PP-C10] | binds |
| RVSYEMLGRRRRSMHGSSMR (on M13 phage, pIII fusion with E-tag) [DGI-2-20F-PP-A4] | binds |
| GSTRLRVTVRFCSETGTPGC (not fully specified; cysteine pairing not given here, on M13 phage, pIII fusion with E-tag) [DGI-2-20F-PP-G6] | binds |
| GLYQRGLAPRCRGERFGVRN (on M13 phage, pIII fusion with E-tag) [DGI-2-20F-PP-C2] | binds |
| YAMSSRECGIRNSGLILSMW (on M13 phage, pIII fusion with E-tag) [DGI-2-20F-PP-C9] | binds |
| WVVALRRIRLGLRRGVECLL (on M13 phage, pIII fusion with E-tag) [DGI-2-20F-PP-D5] | binds |
| TFTRDVAGPAVSFVRLHSWN (on M13 phage, pIII fusion with E-tag) [DGI-2-20F-PP-A9] | binds |
| GGDLGEQGVQLCPDVVRGGSL (on M13 phage, pIII fusion with E-tag) [DGI-2-20F-PP-A7] | binds |
| VGHLLSRCAHHSPGMGASPYG (on M13 phage, pIII fusion with E-tag) [DGI-2-20F-PP-B11] | binds |
| DRHRAFVAEGLDGFRHSTGV (on M13 phage, pIII fusion with E-tag) [DGI-2-20F-PP-D4] | binds |
| EGQRVVFLFGALVAGLCWRDR (on M13 phage, pIII fusion with E-tag) [DGI-2-20F-PP-F3] | binds |
| PVYRVAMCRISVGCSAGAWF (not fully specified; cysteine pairing not given here, on M13 phage, pIII fusion with E-tag) [DGI-2-20F-PP-C12] | binds |
| LFRFSGTGMASLPCVGWHLV (on M13 phage, pIII fusion with E-tag) [DGI-2-20F-PP-B6] | binds |
| CYLSRLFRSGQGIGQFGHVE (on M13 phage, pIII fusion with E-tag) [DGI-2-20F-PP-A82] | binds |
| VVHTRAWGSWAYGFVLRNRG (on M13 phage, pIII fusion with E-tag) [DGI-2-20F-PP-F10] | binds |
| TPVAISIPAGVCSTSVCGRD (not fully specified; cysteine pairing not given here, on M13 phage, pIII fusion with E-tag) [DGI-2-20F-PP-C11] | binds |
| VTGTRFRGFAVACVRMGTWH (on M13 phage, pIII fusion with E-tag) [DGI-2-20F-PP-F2] | binds |
| SLLCVVCRPVSGGRALGGVP (not fully specified; cysteine pairing not given here, on M13 phage, pIII fusion with E-tag) [DGI-2-20F-PP-B42] | binds |
| RRFVRCSVPVALRSAVPVSV (on M13 phage, pIII fusion with E-tag) [DGI-2-20F-PP-A10] | binds |
| VSGVPDGSMRAAQLASGYWC (on M13 phage, pIII fusion with E-tag) [DGI-2-20F-PP-G2] | binds |
| GASRVVDVGWRFWGKLWQRS (on M13 phage, pIII fusion with E-tag) [DGI-2-20F-PP-G5] | binds |
| GGSLPVKSGQLVTCCTSKGG (on M13 phage, pIII fusion with E-tag) [DGI-2-20F-PP-F5] | binds |
| VVGYAQGDGLEGGLGSSRDGS (on M13 phage, pIII fusion with E-tag) [DGI-2-20F-PP-D8] | binds |
| RGSLLLTLPRLSGAVGTAYG (on M13 phage, pIII fusion with E-tag) [DGI-2-20F-PP-B3] | binds |

| Binder | binding result |
| --- | --- |
| RQRSGGRWVVDRVTRVASTSP (on M13 phage, pIII fusion with E-tag) [DGI-2-20F-PP-B12] | binds |
| SVTISTSCRTGCPAGYLRRD (not fully specified; cysteine pairing not given here, on M13 phage, pIII fusion with E-tag) [DGI-2-20F-PP-D2] | binds |
| VQSGRDLGGLLRGGTGTEASP (on M13 phage, pIII fusion with E-tag) [DGI-2-20F-PP-D3] | binds |
| SVSGGGVFGTGGRVRHQVSG (on M13 phage, pIII fusion with E-tag) [DGI-2-20F-PP-C5] | binds |
| VGQSSGDARPLANLFVFPFV (on M13 phage, pIII fusion with E-tag) [DGI-2-20F-PP-F12] | binds |
| CCAWNGVGVGGLGWRVVVGP (on M13 phage, pIII fusion with E-tag) [DGI-2-20F-PP-H4] | binds |
| SAFGCPLPRALGGGGARFYA (on M13 phage, pIII fusion with E-tag) [DGI-2-20F-PP-E11] | binds |
| RISVGQCGTSRCGGGRRGGG (not fully specified; cysteine pairing not given here, on M13 phage, pIII fusion with E-tag) [DGI-2-20F-PP-D1] | binds |
| LLLPVRWRDAQPRSLLMEWI (on M13 phage, pIII fusion with E-tag) [DGI-2-20F-PP-F8] | binds |
| MGADTCMGGKMPFDQMFGAV (on M13 phage, pIII fusion with E-tag) [DGI-2-20F-PP-E10] | binds |
| VCSGGKGTWLEIPDRVRSST (on M13 phage, pIII fusion with E-tag) [DGI-2-20F-PP-A22] | binds |
| GWSDFVATGSWSGQVSAALN (on M13 phage, pIII fusion with E-tag) [DGI-2-20R-4-F120] | binds |
| DGRGWGAMWMRWAEGLGADI (on M13 phage, pIII fusion with E-tag) [DGI-2-20R-4-G114] | binds |
| VWRDWVNGTVGLRNREKPGV (on M13 phage, pIII fusion with E-tag) [DGI-2-20R-3-A5] | binds |
| VWAAWVEGSLLSPRQEPVRD (on M13 phage, pIII fusion with E-tag) [DGI-2-20R-4-G4] | binds |
| GHGAGDWAAELFVCPVAFLTGFAWR (on M13 phage, pIII fusion with E-tag) [DGI-2-20R-4-H2] | binds |
| WWREWVDGSLRGGGGTVLKD (on M13 phage, pIII fusion with E-tag) [DGI-2-20R-3-A122] | binds |
| RRGVCEIFTGWCVGQTNERP (not fully specified (bridges); cysteine pairing not given here, on M13 phage, pIII fusion with E-tag) [DGI-2-20R-4-H626] | binds |
| RSYPRLCKQKGGVIGRMLPG (on M13 phage, pIII fusion with E-tag) [DGI-2-20F-PP-B2] | binds |
| LVIGQRSFLSACSLFDGFCV (not fully specified; cysteine pairing not given here, on M13 phage, pIII fusion with E-tag) [DGI-2-20R-4-H814] | binds |
| GRWDGWEVCGIWGADDCASG (not fully specified; cysteine pairing not given here, on M13 phage, pIII fusion with E-tag) [DGI-2-20R-4-H1] | binds |
| LSLEGGWMWDTKGGDGGSAQ (on M13 phage, pIII fusion with E-tag) [DGI-2-20R-4-F93] | binds |
| LWRRWSEGQLLGDGELRGDG (on M13 phage, pIII fusion with E-tag) [DGI-2-20R-3-B52] | binds |
| CGGWGAMWEAWVQGLNGAGC (not fully specified; cysteine pairing not given here, on M13 phage, pIII fusion with E-tag) [DGI-2-20R-3-D4] | binds |
| SRELGKWGRLWQDWSSGNFS (on M13 phage, pIII fusion with E-tag) [DGI-2-20R-3-C11] | binds |
| RKGWGVFCIPGLRFCDWSDP (not fully specified; cysteine pairing not given here, on M13 phage, pIII fusion with E-tag) [DGI-2-20R-3-B4] | binds |
